Results reported in article doi:10.1101/2024.02.04.578783.

Experiments:
BCL2-mCherry (wild type) = BCL2-mCherry (wild type) (UniProt P10415); assay: single-molecule pull-down and co-IP
BCL2 D103E-mCherry = BCL2 D103E-mCherry (UniProt P10415); assay: single-molecule pull-down and co-IP

Kd (BCL2-mCherry (wild type))	Kd (BCL2 D103E-mCherry)	Substance
63.3 nM	–	BIML, TMD-truncated, eGFP-labeled (domain or fragment)
27.3 nM	–	BIMEL, TMD-truncated, eGFP-labeled (domain or fragment)
53.6 nM	32.1 nM	BH3 domain of BIM, eGFP-labeled (domain or fragment)
15.7 nM	–	BIMS, TMD-truncated, eGFP-labeled (domain or fragment)
